In patent US20250263490A1 (VIB VZW, published 2025):

Legend:
[1] = target: recombinant human domain 1-3His6 of the cation-independent mannose-6-phosphate receptor (human) (UniProt P11717); experiment: BLI at pH 7.4, bivalent model
[2] = target: recombinant human domain 1-3His6 of the cation-independent mannose-6-phosphate receptor (human) (UniProt P11717); experiment: BLI exp 1, dissoc pH 5, bivalent model
[3] = target: recombinant human domain 1-3His6 of the cation-independent mannose-6-phosphate receptor (human) (UniProt P11717); experiment: BLI exp 1, dissoc pH 6, bivalent model
[4] = target: recombinant human domain 1-3His6 of the cation-independent mannose-6-phosphate receptor (human) (UniProt P11717); experiment: BLI exp 1, dissoc pH 7, bivalent model
[5] = target: recombinant human domain 1-3His6 of the cation-independent mannose-6-phosphate receptor (human) (UniProt P11717); experiment: BLI exp 2, dissoc pH 5, bivalent model
[6] = target: recombinant human domain 1-3His6 of the cation-independent mannose-6-phosphate receptor (human) (UniProt P11717); experiment: BLI exp 2, dissoc pH 6, bivalent model
[7] = target: recombinant human domain 1-3His6 of the cation-independent mannose-6-phosphate receptor (human) (UniProt P11717); experiment: BLI exp 2, dissoc pH 7, bivalent model
[8] = target: recombinant human domain 1-3His6 of the cation-independent mannose-6-phosphate receptor (human) (UniProt P11717); experiment: BLI exp 1, dissoc pH 7.4, bivalent model
[9] = target: recombinant human domain 1-3His6 of the cation-independent mannose-6-phosphate receptor (human) (UniProt P11717); experiment: BLI exp 2, dissoc pH 7.4, bivalent model
[10] = target: human cation-independent mannose-6-phosphate receptor, native, on cells (human) (UniProt P11717); experiment: flow cytometry on HepG2 cells, titration of the anti-CI-M6PR 2G11 antibody (Abcam ab2733) [lower graph]
[11] = target: human cation-independent mannose-6-phosphate receptor, native, on cells (human) (UniProt P11717); experiment: flow cytometry on HEK293T cells (sheet: HEK293 cell), titration of the anti-CI-M6PR 2G11 antibody (Abcam ab2733) [lower graph]
[12] = target: T1, recombinant human domain 1-3His6 of the cation-independent mannose-6-phosphate receptor (human, UniProt P11717 41-467); experiment: in-tandem competitive BLI, biotinylated hDom1-3His6 on SA sensors, purified VHH
T1 construct: Biotinylated (NHS-PEG4-biotin) for BLI; Glycosylated; also called hDom1-3His6; hCI-M6PRD1-D3

anti-CI-M6PR antibody (clone 2G11)
Kd [1]: 2760 nM | koff [1]: 0.000592 s⁻¹ | kon [1]: 215 M⁻¹ s⁻¹ | Kd [2]: 1510 nM | koff [2]: 0.000363 s⁻¹ | kon [2]: 241 M⁻¹ s⁻¹ | Kd [3]: 2350 nM | koff [3]: 0.000479 s⁻¹ | kon [3]: 204 M⁻¹ s⁻¹ | Kd [4]: 4430 nM | koff [4]: 0.000712 s⁻¹ | kon [4]: 161 M⁻¹ s⁻¹ | koff [5]: 0.000389 s⁻¹ | kon [5]: 35900 M⁻¹ s⁻¹ | koff [6]: 0.000534 s⁻¹ | kon [6]: 42600 M⁻¹ s⁻¹ | koff [7]: 0.00103 s⁻¹ | kon [7]: 31100 M⁻¹ s⁻¹ | Kd [8]: 2760 nM | koff [8]: 0.000592 s⁻¹ | kon [8]: 215 M⁻¹ s⁻¹ | Kd [9]: 13.1 nM | koff [9]: 0.000794 s⁻¹ | kon [9]: 60700 M⁻¹ s⁻¹ | EC50 (read off the curve) [10]: 0.6 nM | EC50 (read off the curve) [11]: 0.2 nM

B1: 1H74 (VHH)
VHH: QVQLQESGGGLVQPGGSLRLACAASGFTLEDYSIGWFRQAPGKEREGVSCISSSDHSTYYADSVKGRFTISRDNAQNTVYLHMNSLKPEDTAVYYCAGRYSSLARIETNWHDYNYWGQGTQVTVSS
notes: also called anti-CI-M6PR VHH 1H74
binding result [12]: no binding (tested: 400 nM)
